B1: MATN2 (parent)
chain: FSLKTFKRKSEVERAVKRMRHLST

Variants of: B1
Assay: protein stability index of a GFP-peptide fusion (GPS, HEK-293T) (PSI 1-6); higher = more stable
Conditions: c terminus: a fixed tail appended
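Also: lentivirally expressed fusions sorted by FACS into six bins by GFP to DsRed ratio, PSI derived from sequencing read proportions per bin multiplied by bin number.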

Going from FSLKTLKRKSEVERAVKRMRHLST to FSLKTMKRKSEVERAVKRMRHLST, the protein stability index falls from 2.55 to 2.29.

Going from FSLKTNKRKSEVERAVKRMRHLST to FSLKTPKRKSEVERAVKRMRHLST, the protein stability index rises from 2.38 to 2.67.

Compared with FSLKTQKRKSEVERAVKRMRHLST, FSLKTRKRKSEVERAVKRMRHLST is lower in protein stability index: 2.85 for the first, 2.73 for the second.

Going from FSLKTTKRKSEVERAVKRMRHLST to FSLKTVKRKSEVERAVKRMRHLST, the protein stability index rises from 2.75 to 2.96.

First: FSLKTWKRKSEVERAVKRMRHLST
Second: FSLKTYKRKSEVERAVKRMRHLST
The protein stability index of the first is lower: 1.16 for the first, 3.29 for the second.

Compared with FSLKTFARKSEVERAVKRMRHLST, FSLKTFCRKSEVERAVKRMRHLST is lower in protein stability index: 1.78 for the first, 1.63 for the second.

First: FSLKTFDRKSEVERAVKRMRHLST
Second: FSLKTFFRKSEVERAVKRMRHLST
The protein stability index of the first is higher: 2.51 for the first, 1.83 for the second.

Compared with FSLKTFGRKSEVERAVKRMRHLST, FSLKTFHRKSEVERAVKRMRHLST is lower in protein stability index: 2.46 for the first, 2.05 for the second.

First: FSLKTFIRKSEVERAVKRMRHLST
Second: FSLKTFLRKSEVERAVKRMRHLST
The protein stability index of the first is higher: 1.31 for the first, 1.15 for the second.

Going from FSLKTFMRKSEVERAVKRMRHLST to FSLKTFNRKSEVERAVKRMRHLST, the protein stability index rises from 2.66 to 2.76.

Compared with FSLKTFPRKSEVERAVKRMRHLST, FSLKTFQRKSEVERAVKRMRHLST is lower in protein stability index: 2.05 for the first, 1.97 for the second.

Going from FSLKTFRRKSEVERAVKRMRHLST to FSLKTFSRKSEVERAVKRMRHLST, the protein stability index falls from 2.45 to 1.69.

First: FSLKTFTRKSEVERAVKRMRHLST
Second: FSLKTFVRKSEVERAVKRMRHLST
The protein stability index of the first is lower: 2.31 for the first, 2.91 for the second.

First: FSLKTFWRKSEVERAVKRMRHLST
Second: FSLKTFYRKSEVERAVKRMRHLST
The protein stability index of the first is higher: 1.9 for the first, 1.77 for the second.

Going from FSLKTFKCKSEVERAVKRMRHLST to FSLKTFKDKSEVERAVKRMRHLST, the protein stability index rises from 2.27 to 2.85.

First: FSLKTFKFKSEVERAVKRMRHLST
Second: FSLKTFKGKSEVERAVKRMRHLST
The protein stability index of the first is lower: 1.43 for the first, 2.43 for the second.

Compared with FSLKTFKHKSEVERAVKRMRHLST, FSLKTFKIKSEVERAVKRMRHLST is lower in protein stability index: 3.3 for the first, 2.12 for the second.

Going from FSLKTFKKKSEVERAVKRMRHLST to FSLKTFKLKSEVERAVKRMRHLST, the protein stability index rises from 2.33 to 2.48.

Going from FSLKTFKMKSEVERAVKRMRHLST to FSLKTFKNKSEVERAVKRMRHLST, the protein stability index falls from 3.23 to 2.17.

Going from FSLKTFKPKSEVERAVKRMRHLST to FSLKTFKQKSEVERAVKRMRHLST, the protein stability index falls from 2.7 to 2.49.

Going from FSLKTFKSKSEVERAVKRMRHLST to FSLKTFKTKSEVERAVKRMRHLST, the protein stability index rises from 1.93 to 2.47.

Going from FSLKTFKVKSEVERAVKRMRHLST to FSLKTFKYKSEVERAVKRMRHLST, the protein stability index rises from 2.15 to 2.29.

Compared with FSLKTFKRASEVERAVKRMRHLST, FSLKTFKRCSEVERAVKRMRHLST is higher in protein stability index: 1.78 for the first, 2.91 for the second.

Compared with FSLKTFKRDSEVERAVKRMRHLST, FSLKTFKRESEVERAVKRMRHLST is lower in protein stability index: 2.46 for the first, 1.62 for the second.

Going from FSLKTFKRFSEVERAVKRMRHLST to FSLKTFKRGSEVERAVKRMRHLST, the protein stability index rises from 2.25 to 2.46.

Compared with FSLKTFKRISEVERAVKRMRHLST, FSLKTFKRMSEVERAVKRMRHLST is higher in protein stability index: 1.91 for the first, 2.98 for the second.

First: FSLKTFKRNSEVERAVKRMRHLST
Second: FSLKTFKRPSEVERAVKRMRHLST
The protein stability index of the first is lower: 1.65 for the first, 1.84 for the second.

First: FSLKTFKRQSEVERAVKRMRHLST
Second: FSLKTFKRRSEVERAVKRMRHLST
The protein stability index of the first is higher: 2.52 for the first, 1.84 for the second.

Compared with FSLKTFKRSSEVERAVKRMRHLST, FSLKTFKRTSEVERAVKRMRHLST is lower in protein stability index: 2.58 for the first, 2.09 for the second.

Going from FSLKTFKRVSEVERAVKRMRHLST to FSLKTFKRWSEVERAVKRMRHLST, the protein stability index rises from 1.25 to 3.18.

Compared with FSLKTFKRYSEVERAVKRMRHLST, FSLKTFKRKAEVERAVKRMRHLST is lower in protein stability index: 2.12 for the first, 1.72 for the second.

Going from FSLKTFKRKDEVERAVKRMRHLST to FSLKTFKRKEEVERAVKRMRHLST, the protein stability index rises from 2.05 to 2.42.

First: FSLKTFKRKFEVERAVKRMRHLST
Second: FSLKTFKRKGEVERAVKRMRHLST
The protein stability index of the first is lower: 1.77 for the first, 1.99 for the second.

Going from FSLKTFKRKHEVERAVKRMRHLST to FSLKTFKRKIEVERAVKRMRHLST, the protein stability index falls from 2.77 to 1.49.

Compared with FSLKTFKRKKEVERAVKRMRHLST, FSLKTFKRKLEVERAVKRMRHLST is lower in protein stability index: 2.21 for the first, 1.39 for the second.

First: FSLKTFKRKMEVERAVKRMRHLST
Second: FSLKTFKRKNEVERAVKRMRHLST
The protein stability index of the first is lower: 1.91 for the first, 3.07 for the second.

First: FSLKTFKRKPEVERAVKRMRHLST
Second: FSLKTFKRKQEVERAVKRMRHLST
The protein stability index of the first is higher: 2.62 for the first, 2.26 for the second.

Going from FSLKTFKRKREVERAVKRMRHLST to FSLKTFKRKTEVERAVKRMRHLST, the protein stability index rises from 2.46 to 2.73.

Going from FSLKTFKRKVEVERAVKRMRHLST to FSLKTFKRKWEVERAVKRMRHLST, the protein stability index falls from 3.04 to 2.88.

Going from FSLKTFKRKYEVERAVKRMRHLST to FSLKTFKRKSAVERAVKRMRHLST, the protein stability index rises from 2.3 to 2.52.

Compared with FSLKTFKRKSCVERAVKRMRHLST, FSLKTFKRKSDVERAVKRMRHLST is higher in protein stability index: 1.76 for the first, 2.39 for the second.

First: FSLKTFKRKSFVERAVKRMRHLST
Second: FSLKTFKRKSGVERAVKRMRHLST
The protein stability index of the first is lower: 2.01 for the first, 2.46 for the second.

Going from FSLKTFKRKSHVERAVKRMRHLST to FSLKTFKRKSIVERAVKRMRHLST, the protein stability index falls from 2.29 to 1.96.

First: FSLKTFKRKSKVERAVKRMRHLST
Second: FSLKTFKRKSLVERAVKRMRHLST
The protein stability index of the first is higher: 3.17 for the first, 2.56 for the second.

Going from FSLKTFKRKSMVERAVKRMRHLST to FSLKTFKRKSNVERAVKRMRHLST, the protein stability index rises from 2.8 to 2.82.

Going from FSLKTFKRKSPVERAVKRMRHLST to FSLKTFKRKSQVERAVKRMRHLST, the protein stability index rises from 2.17 to 2.44.

Compared with FSLKTFKRKSRVERAVKRMRHLST, FSLKTFKRKSSVERAVKRMRHLST is lower in protein stability index: 3.21 for the first, 1.98 for the second.

Source: the supplement of paper PMC10567573
